This passage reports stoichiometry N results from PMC7738311.

This test addresses His-tagged MafAI (MafAI.1 of N. meningitidis BB-1, from plasmid pEN-mafAI-H) (Neisseria meningitidis strain BB-1). Briefly: semi-native SDS-PAGE with Western blot (heat modifiability); cell envelopes of BB-1, samples heated at 95°C or not before electrophoresis; sample buffer with 0.2% SDS and no β-mercaptoethanol, run on ice; detected with anti-His-tag antibodies (MafAI) or anti-MafAII antiserum.

Regarding “His-tagged MafAI (MafAI.1 of N. meningitidis BB-1, from plasmid pEN-mafAI-H) (natural protein)”, the stoichiometry N is 8 subunits.

The term stoichiometry N denotes a count of units in the complex or per binding partner.
